Test results published in the supplement of paper PMC7877785.
± gives the uncertainty stated by the source.

Test: self-splicing fitness, log relative to wild type (ln ratio); higher = more splicing; Tetrahymena group I intron in knt gene, E. coli kanamycin selection, DiMSum; sequences stand for … in CUCUCU…GGAGGGAAAAGUUAUCAGGCAUGCACCUGGUAGCUAGUCUUUAAACCAAUAGAUUGCAUCGGUUUAAAAGGCAAGACCGUCAAAUUGCGGGAAAGGGGUCAACAGCCGUUCAGUACCAAGUCUCAGGGGAAACUUUGAGAUGGCCUUGCAAAGGGUAUGGUAAUAAGCUGACGGACAUGGUCCUAACCACGCAGCCAAGUCCUAAGUCAACAGAUCUUCUGUUGAUAUGGAUGCAGUUCACAGACUAAAUGUCGGUCGGGGAAGAUGUAUUCUUCUCAUAAGAUAUAGUCGGACCUCUCCUUAAUGGGAGCUAGCGGAUGAAGUGAUGCAACACUGGAGCCGCUGGGAACUAAUUUGUAUGCGAAAGUAUAUUGAUUAGUUUUGGAGUACUCGUGGUCG
Method in brief: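 The eight P1ex-region nucleotides of an intron in the knt kanamycin-resistance gene on pET-22b(+) were all randomised and the library put into E. coli BL21(DE3). Six replicate transformations were grown overnight at 37°C or 30°C on LB agar with or without 25 μg/mL kanamycin, together with 100 μg/mL carbenicillin, 50 μM IPTG and 0.2% rhamnose. Colonies were pooled and amplicon-sequenced on an Illumina HiSeq 2500. Fitness from DiMSum is the error-weighted combination of wild-type-normalised replicate fold changes, kanamycin over none.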

Sequence	self-splicing fitness (ln) (30 °C)	self-splicing fitness (ln) (37 °C)
CCUGAGCAAUAUUACGUUCC	-2.52 ± 0.28	-2.5 ± 0.42
CCUGAGCAAUAUUACGUUCG	-3.43 ± 0.26	-2.87 ± 0.38
CCUUAGCAAUAUUACGACGC	-3.94 ± 0.33	-2.51 ± 0.29
CCUUAGCAAUAUUACGAGGA	-2.8 ± 0.25	-1.69 ± 0.27
CCUUAGCAAUAUUACGAGGC	-4.12 ± 0.29	-1.6 ± 0.27
CCUUAGCAAUAUUACGCUAA	-3.35 ± 0.4	-1.97 ± 0.2
CCUUAGCAAUAUUACGCUCC		-1.44 ± 0.5
CCUUAGCAAUAUUACGCUCU	-3.8 ± 0.43	-0.731 ± 0.38
CCUUAGCAAUAUUACGCUGU	-3.42 ± 0.2	-2.49 ± 0.19
CCUUAGCAAUAUUACGGACC	-2.33 ± 0.3	
CCUUAGCAAUAUUACGGAGA	-3.46 ± 0.37	-2.41 ± 0.42
CCUUAGCAAUAUUACGGGAA	-3.02 ± 0.18	-2.76 ± 0.19
CCUUAGCAAUAUUACGGGAU	-3.68 ± 0.29	-2.68 ± 0.27
CCUUAGCAAUAUUACGGGGA	-3.75 ± 0.29	-2.63 ± 0.23
CCUUAGCAAUAUUACGGGUC	-4.43 ± 0.3	-2.86 ± 0.38
CCUUAGCAAUAUUACGGGUG	-1.5 ± 0.065	-0.759 ± 0.081
CCUUAGCAAUAUUACGGUGU	-3.82 ± 0.24	-2.81 ± 0.23
CCUUAGCAAUAUUACGUACG	-2.45 ± 0.22	-2.2 ± 0.29
CCUUAGCAAUAUUACGUAGA	-4.13 ± 0.34	-0.769 ± 0.17
CCUUAGCAAUAUUACGUCAA	-2.87 ± 0.33	

Sequence	self-splicing fitness (ln) (30 °C)	self-splicing fitness (ln) (37 °C)
CCUUAGCAAUAUUACGUCCA		-1.92 ± 0.33
CCUUAGCAAUAUUACGUGUC	-2.66 ± 0.26	-0.776 ± 0.21
CCUUAGCAAUAUUACGUUCA	-3.3 ± 0.47	-2.9 ± 0.47
CCUUAGCAAUAUUACGUUCC	-3.14 ± 0.31	-2.51 ± 0.34
CCUUAGCAAUAUUACGUUGC	-3.68 ± 0.38	-3.31 ± 0.3
CCUUAGCAAUAUUACGUUUU	-4.8 ± 0.31	-2.85 ± 0.28
CGAAAGCAAUAUUACGACAU	-2.721 ± 0.017	-1.41 ± 0.034
CGAAAGCAAUAUUACGACCA	-1.24 ± 0.14	-1.24 ± 0.15
CGAAAGCAAUAUUACGACGA	-0.59 ± 0.094	0.312 ± 0.09
CGAAAGCAAUAUUACGAGAU	-3.54 ± 0.34	-1.55 ± 0.17
CGAAAGCAAUAUUACGAGCG	-0.778 ± 0.098	-0.277 ± 0.11
CGAAAGCAAUAUUACGCCGG	-0.615 ± 0.14	0.34 ± 0.17
CGAAAGCAAUAUUACGCCUU	-2.73 ± 0.44	-1.11 ± 0.28
CGAAAGCAAUAUUACGCUGG	-1.66 ± 0.11	-0.903 ± 0.14
CGAAAGCAAUAUUACGGCGU	-0.379 ± 0.074	0.313 ± 0.11
CGAAAGCAAUAUUACGGCUA	-1.72 ± 0.13	-1.6 ± 0.14
CGAAAGCAAUAUUACGGGUG	0.0165 ± 0.043	0.189 ± 0.063
CGAAAGCAAUAUUACGGUCC	-0.283 ± 0.087	-0.129 ± 0.13
CGAAAGCAAUAUUACGGUGG	-0.576 ± 0.046	0.0831 ± 0.066
